Literature values in publication PMC6347146.

Target: IL-21R (Homo sapiens) (UniProt Q9HBE5)
UniProt Q9HBE5, sequence (Q9HBE5 20-232): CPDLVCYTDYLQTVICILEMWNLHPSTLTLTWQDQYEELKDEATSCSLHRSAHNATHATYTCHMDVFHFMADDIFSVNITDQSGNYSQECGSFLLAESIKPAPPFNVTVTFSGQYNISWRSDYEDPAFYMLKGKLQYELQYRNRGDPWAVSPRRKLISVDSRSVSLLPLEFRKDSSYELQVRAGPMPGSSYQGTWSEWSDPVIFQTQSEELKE

Substance: IL-21 (from UniProt Q9HBE4)
- Kd: 70 pM
